The target in assay [1] is T1, OP-1 pro domain, truncated form (human, UniProt P18075 48-292).
T1 construct: also called truncated form of the pro region (beginning at residue 48); 48-292 truncated form
As to the kind of experiment: reverse phase C18 HPLC separation of the purified soluble complex into pro domain and mature species, then N-terminal sequencing. An excerpt: The complex components can be verified by running the complex-containing fraction from the S-200 or S-200HR columns over a reverse phase C18 HPLC column and eluting in an acetonitrile gradient (in 0.1% TFA), using standard procedures. The complex is dissociated by this step, and the pro domain and mature species elute as separate species. These separate species then can be subjected to N-terminal sequencing using standard procedures (see, for example, Guide to Protein Purification, M. Deutscher, ed., Academic Press, San Diego, 1990, particularly pp. 602-613), and the identity of the isolated 36 kD, 39 kDa proteins confirmed as mature morphogenic protein and isolated, cleaved pro domain, respectively.

Assay [2] has as its target T2, OP-1 pro domain, intact form (human, UniProt P18075 30-292).
T2 construct: Cleaved pro domain of 39 kDa; also called pro region; full length pro region (residues 30-292)
As to the kind of experiment: gel filtration (Sephacryl S-200HR in TBS) of soluble OP-1 complex purified from CHO conditioned media without denaturants; complex elutes at an apparent 110 kDa. Here is the method:
The 50 mM imidazole eluate containing the soluble OP-1 complex was diluted with nine volumes of 20 mM NaPO₄ (pH 7.0) and applied to an S-Sepharose (Pharmacia) column equilibrated in 20 mM NaPO₄ (pH 7.0) with 50 mM NaCl. The S-Sepharose resin was loaded with an equivalent of 800 mL of starting conditioned media per mL of resin. After loading the S-Sepharose column was washed with equilibration buffer and eluted with 100 mM NaCl followed by 300 mM and 500 mM NaCl in 20 mM NaPO₄ (pH 7.0). The 300 mM NaCl pool was further purified using gel filtration chromatography. Fifty mls of the 300 mm NaCl eluate was applied to a 5.0×90 cm Sephacryl S-200HR (Pharmacia) equilibrated in Tris buffered saline (TBS), 50 mM Tris, 150 mM NaCl (pH 7.4). […] The apparent molecular of the soluble OP-1 was determined by comparison to protein molecular weight standards (alcohol dehydrogenase (ADH, 150 kDa), bovine serum albumin (BSA, 68 kDa), carbonic anhydrase (CA, 30 kDa) and cytochrome C (cyt C, 12.5 kDa) (see FIG. 3). The purity of the S-200 column fractions was determined by separation on standard 15% polyacrylamide SDS gels stained with coomassie blue. The identity of the mature OP-1 and the pro-domain was determined by N-terminal sequence analysis after separation of the mature OP-1 from the pro-domain using standard reverse phase C18 HPLC.
On the technique in general: In gel filtration, larger molecules generally elute earlier.

T2 sequence (P18075 30-292): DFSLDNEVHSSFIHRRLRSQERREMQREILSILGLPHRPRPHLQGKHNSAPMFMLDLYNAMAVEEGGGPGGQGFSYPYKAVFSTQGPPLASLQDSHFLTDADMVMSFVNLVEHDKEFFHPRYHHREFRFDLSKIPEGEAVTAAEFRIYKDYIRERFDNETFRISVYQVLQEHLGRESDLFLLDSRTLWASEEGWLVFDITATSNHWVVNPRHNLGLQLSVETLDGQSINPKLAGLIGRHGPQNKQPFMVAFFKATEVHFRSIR
T1 sequence (P18075 48-292): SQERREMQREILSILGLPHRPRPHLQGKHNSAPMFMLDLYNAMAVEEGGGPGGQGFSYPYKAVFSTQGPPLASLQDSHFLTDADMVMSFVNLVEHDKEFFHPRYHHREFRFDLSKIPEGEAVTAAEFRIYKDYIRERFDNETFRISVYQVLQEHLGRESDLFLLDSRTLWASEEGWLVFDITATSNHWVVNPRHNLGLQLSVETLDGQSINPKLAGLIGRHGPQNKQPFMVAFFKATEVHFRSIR

B1: mature OP-1 dimer (ligand)
chain: STGSKQRSQNRSKTPKNQEALRMANVAENSSSDQRQACKKHELYVSFRDLGWQDWIIAPEGYAAYYCEGECAFPLNSYMNATNHAIVQTLVHFINPETVPKPCCAPTQLNAISVLYFDDSSNVILKKYRNMVVRACGCH
notes: Expressed in CHO cells and purified as part of the soluble OP-1 complex; The dimer runs at 35-36 kDa; also called BMP-7; osteogenic protein-1
B1: the binding result in assay [1] and in assay [2] was “binds” each time.

Source of the values: patent US20090298761A1 (MARIEL THERAPEUTICS, published 2009).
